Data: US20040235710A1, “Pre-mixes of glp-1 and basal insulin” (published 2004)
Positions count from the first letter of the chain named.

B1: Val^8-Trp^16-Glu^22-Val^25-Ile^33-GLP-1(7-37)OH (peptide)
peptide: HVEGTFTSDWSSYLEEQAVKEFIAWLIKGRG
B2: Val^8-Tyr^16-GLP-1(7-37)OH (peptide)
peptide: HVEGTFTSDYSSYLEGQAAKEFIAWLVKGRG
B3: Val^8-Trp^19-Glu^22-GLP-1(7-37)OH (peptide)
peptide: B2 peptide with Y10V, Y13W, G16E
B4: Val^8-Ile^18-Glu^22-GLP-1(7-37)OH (peptide)
peptide: B2 peptide with Y10V, S12I, G16E
B5: Val^8-Trp^12-Glu^22-GLP-1(7-37)OH (peptide)
peptide: B2 peptide with F6W, Y10V, G16E
B6: Val^8-Trp^16-Glu^22-Ile^33-GLP-1(7-37)OH (peptide)
peptide: B1 peptide with V19A
B7: Val^8-Glu^22-Ile^27-GLP-1(7-37)OH (peptide)
peptide: B2 peptide with Y10V, G16E, E21I
B8: Val^8-Leu^16-Glu^22-GLP-1(7-37)OH (peptide)
peptide: B2 peptide with Y10L, G16E
B9: Val^8-Ile^16-Glu^22-GLP-1(7-37)OH (peptide)
peptide: B2 peptide with Y10I, G16E
B10: Val^8-Phe^19-Glu^22-GLP-1(7-37)OH (peptide)
peptide: B2 peptide with Y10V, Y13F, G16E
B11: Val^8-Glu^22-Ile^25-GLP-1(7-37)OH (peptide)
peptide: B1 peptide with W10V, V19I, I27V
B12: Val^8-Tyr^12-GLP-1(7-37)OH (peptide)
peptide: B2 peptide with F6Y, Y10V
B13: Val^8-Asp^9-Ile^11-Tyr^16-Glu^22-GLP-1(7-37)OH (peptide)
peptide: B2 peptide with E3D, T5I, G16E
B14: Val^8-Glu^22-Leu^25-GLP-1(7-37)OH (peptide)
peptide: B1 peptide with W10V, V19L, I27V
B15: Val^8-Tyr^16-Phe^19-GLP-1(7-37)OH (peptide)
peptide: B2 peptide with Y13F
B16: Val^8-Phe^20-Glu^22-GLP-1(7-37)OH (peptide)
peptide: B2 peptide with Y10V, L14F, G16E
B17: Val^8-Tyr^12-Glu^22-GLP-1(7-37)OH (peptide)
peptide: B2 peptide with F6Y, Y10V, G16E
B18: Val^8-Phe^16-Glu^22-GLP-1(7-37)OH (peptide)
peptide: B2 peptide with Y10F, G16E
B19: Val^8-Tyr^16-Trp^19-Glu^22-GLP-1(7-37)OH (peptide)
peptide: B2 peptide with Y13W, G16E
B20: Val^8-Phe^18-Glu^22-GLP-1(7-37)OH (peptide)
peptide: B2 peptide with Y10V, S12F, G16E
B21: Val^8-Lys^18-Glu^22-GLP-1(7-37)OH (peptide)
peptide: B2 peptide with Y10V, S12K, G16E

Target: T1, human GLP-1 receptor (human, UniProt P43220)
Assay: not given

Row | Molecule | GLP-1 receptor activation relative to Val^8-GLP-1(7-37)OH (relative potency)
1 | Val^8-Cys^16-Lys^26-Arg^34-GLP-1(7-37)OH (peptide) | 1.9
2 | Val^8-Cys^16-Lys^26-GLP-1(7-37)OH (peptide) | 4.2
3 | Val^8-Val^16-GLP-1(7-37)OH (peptide) | 1.1

Target: T1, human GLP-1 receptor
Assay: cell-based or functional assay

Row | Molecule | GLP-1 receptor activation relative to Val^8-GLP-1(7-37)OH [relative potency]
4 | B1 | 5
5 | B2 | 2.5
6 | B3 | 3.2
7 | B4 | 4
8 | B5 | 1.7
9 | B6 | 4.1
10 | B7 | 2
11 | B8 | 4.3
12 | B9 | 3.3
13 | B10 | 1.5
14 | B11 | 3.1
15 | B12 | 1.7
16 | B13 | 4.3
17 | B14 | 2.8
18 | B15 | 2.8
19 | B16 | 2.7
20 | B17 | 2.7
21 | B18 | 2.3
22 | B19 | 3.5
23 | B20 | 2
24 | B21 | 2.5

Target: T1, human GLP-1 receptor
Assay: cell-based or functional assay
Remark: another data set of the same source

Row | Molecule | GLP-1 Receptor Activation (relative to GLP-1(7-37)OH) [relative potency]
25 | B2 | 1.18
26 | B12 | 0.81
